Results reported in patent US20240158497A1 (published 2024).

T1: human GP130 extracellular domain expressed with a C-terminal mouse IgG2a Fc tag (hGP130-mFc) (human)
T1 construct: also called dimeric human GP130
T1 chain: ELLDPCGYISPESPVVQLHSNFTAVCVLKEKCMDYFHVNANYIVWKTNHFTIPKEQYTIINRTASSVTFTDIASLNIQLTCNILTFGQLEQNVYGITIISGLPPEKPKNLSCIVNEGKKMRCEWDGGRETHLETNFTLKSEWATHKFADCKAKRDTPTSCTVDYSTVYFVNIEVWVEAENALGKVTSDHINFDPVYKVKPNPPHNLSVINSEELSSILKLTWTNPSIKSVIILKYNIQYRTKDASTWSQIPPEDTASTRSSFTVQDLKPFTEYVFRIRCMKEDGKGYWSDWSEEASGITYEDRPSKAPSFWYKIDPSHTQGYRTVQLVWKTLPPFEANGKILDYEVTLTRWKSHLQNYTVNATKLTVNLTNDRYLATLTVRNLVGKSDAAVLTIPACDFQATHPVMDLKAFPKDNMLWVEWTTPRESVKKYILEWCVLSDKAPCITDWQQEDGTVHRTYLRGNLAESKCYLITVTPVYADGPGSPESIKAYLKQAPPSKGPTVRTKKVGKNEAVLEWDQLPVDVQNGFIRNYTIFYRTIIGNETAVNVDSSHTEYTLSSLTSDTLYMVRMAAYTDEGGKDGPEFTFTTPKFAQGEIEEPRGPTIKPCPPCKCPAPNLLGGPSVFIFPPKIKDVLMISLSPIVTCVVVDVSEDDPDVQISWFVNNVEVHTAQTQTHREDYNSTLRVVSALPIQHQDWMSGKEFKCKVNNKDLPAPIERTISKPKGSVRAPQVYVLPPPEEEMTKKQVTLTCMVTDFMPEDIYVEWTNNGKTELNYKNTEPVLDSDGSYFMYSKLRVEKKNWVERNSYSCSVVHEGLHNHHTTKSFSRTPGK

B1: MAb16683 (antibody, V domains shown)
VH: QVQLVESGGGLVKPGGSLRLSCAASGFTFSDYYMTWIRQTPGKGLDWVSYISSSGTNKYNADSVKGRFTISRDNAKNSLYLQMNSLRAEDTAVYYCVRDPPWGMDVWGQGTTVTVSS
VL: not shown
B2: MAb16683 (antibody, V domains shown)
VH: B1 VH
VL: not shown
notes: captured through anti-human Fc
B3: MAb16676 (antibody, V domains shown)
VH: QVQLVQSGAEVMKPGASVKVSCRASGYTFSSYDINWVRQAPGQGLEWMGWISTATGNTNYPQKVQGRVTMTTDTSTNTAYMELRSLRSDDTAVYYCTREGNSKGWLDPWGQGTLVTVSS
VL: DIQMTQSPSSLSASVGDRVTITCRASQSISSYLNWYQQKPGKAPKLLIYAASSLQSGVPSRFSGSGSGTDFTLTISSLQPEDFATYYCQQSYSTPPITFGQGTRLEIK
notes: as for B2
B4: MAb16673 (antibody, V domains shown)
VH: EVQLVQSGAEVKKPGESLKISCKGSGYSFTSYWIDWVRQMPGKGLEWMGIIYPDDSDTRYSPSFQGQVTMSVDKSISTAYLQWSSLKASDTAIYYCARHERGIVEAGTDYYYYYGMDVWGQGTTVTVSS
VL: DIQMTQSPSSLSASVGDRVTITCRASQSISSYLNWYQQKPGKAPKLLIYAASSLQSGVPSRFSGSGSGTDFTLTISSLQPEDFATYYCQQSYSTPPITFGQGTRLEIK
notes: as for B2
B5: MAb16680 (antibody, V domains shown)
VH: QVQLQQSGPGQMKSSQTLTLTCAISGDSVSSNSAIWYWIRQSPSRGLEWLGRTKFRSKWYNDFALSMKSRITINPDTSKNQFSLHLNSVTPEDTAVYYCARYKWELYFDYWGQGTLVTVSS
VL: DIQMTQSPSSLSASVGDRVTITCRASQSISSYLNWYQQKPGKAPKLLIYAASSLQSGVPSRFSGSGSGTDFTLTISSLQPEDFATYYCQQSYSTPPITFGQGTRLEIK
B6: MAb16682 (antibody, V domains shown)
VH: EVQLVESGGGLVQPGGSLRLSCAASGFTFSTYWMNWVRQAPGKGLEWVANIKEDGSEKYYVDSVKGRFTISRDNAKNSLYLQMNSLRAEDTAVYYCAREGFGVVTYIWGQGTMVTVSS
VL: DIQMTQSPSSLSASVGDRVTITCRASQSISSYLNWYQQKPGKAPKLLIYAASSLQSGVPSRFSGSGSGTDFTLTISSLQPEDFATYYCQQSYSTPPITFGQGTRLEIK
notes: as for B2

Columns and labels:
[1] = biological target: T2, mouse GP130 extracellular domain expressed with a C-terminal myc-myc-hexahistidine tag (mouse, UniProt Q00560 23-617); assay: SPR
T2 construct: monomeric; also called mGP130-mmH; mGP130-MMH
T2 sequence (Q00560 other isoform, or with tags, fused parts or gaps): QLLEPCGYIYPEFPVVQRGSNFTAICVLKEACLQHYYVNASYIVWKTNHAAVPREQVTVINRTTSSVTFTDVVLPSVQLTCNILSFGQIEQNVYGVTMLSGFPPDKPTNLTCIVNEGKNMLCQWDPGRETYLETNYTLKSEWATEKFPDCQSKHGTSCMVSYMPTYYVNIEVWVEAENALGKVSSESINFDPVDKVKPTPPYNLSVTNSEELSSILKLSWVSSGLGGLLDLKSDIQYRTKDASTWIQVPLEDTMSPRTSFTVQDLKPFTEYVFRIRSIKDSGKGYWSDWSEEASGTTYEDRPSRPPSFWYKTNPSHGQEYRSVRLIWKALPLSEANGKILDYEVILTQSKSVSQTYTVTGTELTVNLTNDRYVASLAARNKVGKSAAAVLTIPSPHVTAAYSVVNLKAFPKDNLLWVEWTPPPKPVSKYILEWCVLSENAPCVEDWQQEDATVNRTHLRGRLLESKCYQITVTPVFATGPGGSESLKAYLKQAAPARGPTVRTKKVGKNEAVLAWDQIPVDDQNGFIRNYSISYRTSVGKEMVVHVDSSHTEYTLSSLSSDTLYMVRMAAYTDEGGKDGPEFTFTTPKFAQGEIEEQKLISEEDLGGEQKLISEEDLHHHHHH
Method: (§1) Equilibrium dissociation constant (KD) for different GP130 reagents binding to purified anti-GP130 monoclonal antibodies were determined using a real-time surface plasmon resonance based Biacore 4000 biosensor. All binding studies were performed in 10 mM HEPES, 150 mM NaCl, 3 mM EDTA, and 0.05% v/v Surfactant Tween-20, pH 7.4 (HBS-ET) running buffer at 25° C. and 37° C. The Biacore sensor surface was first derivatized by amine coupling with a monoclonal mouse anti-human Fc antibody (GE, #BR-1008-39) to capture anti-GP130 monoclonal antibodies. […] Reagents tagged with “mmH” are monomeric, whereas reagents tagged with “mFc” are dimeric. Thus, for example, “hGP130-mmH” is also referred to as “monomeric human GP130,” and “hGP130-mFc” is also referred to as “dimeric human GP130.”
(§2) The association rate (k a) and dissociation rate (kd) were determined by fitting the real-time binding sensorgrams to a 1:1 binding model with mass transport limitation using Scrubber 2.0c curve-fitting software. Binding dissociation equilibrium constant (KD) and dissociative half-life (t ½) were calculated from the kinetic rates as: […]

[2] = biological target: T3, human GP130 extracellular domain expressed with a C-terminal myc-myc-hexahistidine tag (human, UniProt P40189 23-619); assay: SPR 25C, mAb captured, hGP130-MMH injected
T3 construct: monomeric; also called hGP130-mmH; hGP130-MMH
Method: as §1, §2

[3] = biological target: T4, mouse GP130 extracellular domain expressed with a C-terminal myc-myc-hexahistidine tag (mGP130-mmH) (mouse, UniProt Q00560 23-617); assay: SPR Biacore, mAb captured via anti-hFc, 25 C
T4 construct: Monomeric; the entry includes the myc-myc-His tag
T4 sequence (Q00560 other isoform, or with tags, fused parts or gaps): as above
Method: as §1, §2

[4] = biological target: T5, rat GP130 extracellular domain expressed with a C-terminal myc-myc-hexahistidine tag (rGP130-mmH) (rat, UniProt P40190 23-618); assay: SPR Biacore, mAb captured via anti-hFc, 25 C
T5 construct: Monomeric; the entry includes the myc-myc-His tag
T5 sequence (P40190 other isoform, or with tags, fused parts or gaps): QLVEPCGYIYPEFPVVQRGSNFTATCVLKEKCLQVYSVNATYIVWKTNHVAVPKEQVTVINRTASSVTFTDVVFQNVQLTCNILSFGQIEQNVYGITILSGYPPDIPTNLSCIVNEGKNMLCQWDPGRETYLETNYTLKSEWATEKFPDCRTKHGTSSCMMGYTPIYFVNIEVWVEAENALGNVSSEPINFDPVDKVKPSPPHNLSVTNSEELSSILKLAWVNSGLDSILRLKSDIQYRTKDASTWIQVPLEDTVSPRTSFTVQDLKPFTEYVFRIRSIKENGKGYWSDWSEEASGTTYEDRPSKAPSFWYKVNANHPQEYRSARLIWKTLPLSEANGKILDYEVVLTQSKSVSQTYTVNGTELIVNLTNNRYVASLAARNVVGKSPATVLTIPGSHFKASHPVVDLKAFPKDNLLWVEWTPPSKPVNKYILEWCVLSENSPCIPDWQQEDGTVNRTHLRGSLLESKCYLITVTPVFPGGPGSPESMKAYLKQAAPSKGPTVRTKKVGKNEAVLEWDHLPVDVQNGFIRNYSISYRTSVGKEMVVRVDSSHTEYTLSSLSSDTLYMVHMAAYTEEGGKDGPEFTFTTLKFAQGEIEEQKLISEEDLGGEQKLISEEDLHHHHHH
Method: as §1, §2

[5] = biological target: T1, human GP130 extracellular domain …; assay: SPR Biacore, mAb captured via anti-hFc, 25 C
Method: as §1, §2

[6] = biological target: T4, mouse GP130 extracellular domain …; assay: SPR Biacore, mAb captured via anti-hFc, 37 C
Method: as §1, §2

[7] = biological target: T5, rat GP130 extracellular domain …; assay: SPR Biacore, mAb captured via anti-hFc, 37 C
Method: as §1, §2

[8] = biological target: T1, human GP130 extracellular domain …; assay: SPR Biacore, mAb captured via anti-hFc, 37 C
Method: as §1, §2

Binder | binding result [1] | 100 nM Ag Bound (RU) [3] [RU] | 100 nM Ag Bound (RU) [4] [RU] | binding result [4] | 100 nM Ag Bound (RU) [5] [RU] | Kd [5] [nM] | koff [5] [s⁻¹] | kon [5] [M⁻¹ s⁻¹] | t½ [5] [min] | 100 nM Ag Bound (RU) [6] [RU] | binding result [6] | 100 nM Ag Bound (RU) [7] [RU] | 100 nM Ag Bound (RU) [8] [RU] | Kd [8] [nM] | koff [8] [s⁻¹] | kon [8] [M⁻¹ s⁻¹] | t½ [8] [min] | further results
B1 | no binding (tested: 100 nM) | – | – | – | – | – | – | – | – | – | – | – | – | – | – | – | – | 100 nM Ag Bound (RU) [2]: 54 RU; Kd [2]: 46.7 nM; koff [2]: 0.00325 s⁻¹; kon [2]: 69700 M⁻¹ s⁻¹; t½ [2]: 4 min
B2 | – | 0 | 0 | no binding (tested: 100 nM) | 107 | 1.86 | 0.000311 | 167000 | 37 | 0 | no binding (tested: 100 nM) | 0 | 111 | 5.8 | 0.00114 | 196000 | 10 | –
B3 | – | 0 | 0 | no binding (tested: 100 nM) | 119 | 0.0836 | 7.13e-05 | 853000 | 162 | 0 | no binding (tested: 100 nM) | 0 | 140 | 0.0566 | 9.45e-05 | 1.67e+06 | 122 | –
B4 | – | 0 | 0 | no binding (tested: 100 nM) | 169 | 0.173 | 9.66e-05 | 560000 | 120 | 1 | no binding (tested: 100 nM) | 2 | 199 | 0.457 | 0.000313 | 684000 | 37 | –
B5 | no binding (tested: 100 nM) | – | – | – | – | – | – | – | – | – | – | – | – | – | – | – | – | –
B6 | – | 1 | 0 | no binding (tested: 100 nM) | 126 | 2.1 | 0.000361 | 172000 | 32 | 0 | no binding (tested: 100 nM) | 1 | 130 | 8.33 | 0.00196 | 236000 | 6 | –
